Results published in publication PMC7811047.

Molecular target: N-terminal protein A (PA)-Renilla luciferase (RL)-ARFRP1 fusion protein (UniProt Q13795)
Test: co-IP

Chain of UniProt Q13795 (Q13795 whole entry, the tested form may be a part): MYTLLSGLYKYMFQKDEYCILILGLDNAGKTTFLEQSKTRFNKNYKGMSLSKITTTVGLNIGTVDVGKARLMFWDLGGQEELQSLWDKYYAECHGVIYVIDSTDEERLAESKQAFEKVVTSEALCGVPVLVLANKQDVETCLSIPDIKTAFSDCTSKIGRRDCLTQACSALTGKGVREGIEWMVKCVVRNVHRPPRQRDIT

- fold luciferase activity over control: 2.8 fold
Substance: V5-firefly luciferase (FL)-tagged VPS35 (from UniProt Q96QK1 1-796) (natural protein)
